Data from publication PMC13108567 (2026).
Blank lines part the entries; values can stand above or below the binder they belong to.

Tests used:
[1] = molecular target: human programmed cell death protein 1 on PD-1 hi transgenic Jurkat cells (human, UniProt Q15116 25-288); experiment: FACS
[2] = molecular target: PD-1 biotinylated dimer (human, UniProt Q15116 25-288, biotin); experiment: BLI
Chain of PD-1 biotinylated dimer (Q15116 25-170): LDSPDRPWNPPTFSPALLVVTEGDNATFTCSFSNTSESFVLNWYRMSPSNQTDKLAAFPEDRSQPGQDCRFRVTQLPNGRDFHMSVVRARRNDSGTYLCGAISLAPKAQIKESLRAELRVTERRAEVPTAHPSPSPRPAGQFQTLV

Chain of human programmed cell death protein 1 on PD-1 hi transgenic Jurkat cells (Q15116 25-288): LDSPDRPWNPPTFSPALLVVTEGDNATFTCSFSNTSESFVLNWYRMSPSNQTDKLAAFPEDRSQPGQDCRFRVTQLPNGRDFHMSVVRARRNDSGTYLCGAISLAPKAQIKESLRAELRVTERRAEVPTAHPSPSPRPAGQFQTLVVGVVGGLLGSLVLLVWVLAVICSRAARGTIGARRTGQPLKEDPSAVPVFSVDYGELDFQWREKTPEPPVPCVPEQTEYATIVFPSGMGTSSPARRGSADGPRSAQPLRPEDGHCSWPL

Kd [2]: 16 nM
B1: Fab of anti-PD-1 clone 135c139d6 (Fab, V domains shown)
VH: EVQLVQSGAEVKKPGESLKISCKGSGYSFTNFYIHWVRQAPGQRLEWMGSIYPNYGDTAYNQKFKDRFVFSLDTSVSTAYLQISSLKAEDTAVYYCARGYSYAMDYWGQGTTVTVSS
VL: DIQMTQSPSSVSASVGDRVTITCSASQGISGDLNWYQQKPGKAPKLLIYHTSSLHSGVPSRFSGSGSGTDFTLTISSLQPEDFATYYCQYYSKDLLTFGGGTKLEIK
EC50 [1]: 42 nM

Kd [2]: 10 nM
B2: scFv-His of anti-PD-1 clone 135c139d6 (scFv, V domains shown)
VH: B1 VH
VL: B1 VL
EC50 [1]: 162 nM
